Data set [1] concerns the molecule itself. The experiment in a line: crystal structure; apo-mTREX2 at 1.9 Å, one dimer in the asymmetric unit; a dimer is also seen in the Y-shaped DNA complex and the product (dCMP) complex.
Data set [2] has as its target T1, mTREX2 (Mus musculus, UniProt Q9R1A9 1-236).
T1 sequence: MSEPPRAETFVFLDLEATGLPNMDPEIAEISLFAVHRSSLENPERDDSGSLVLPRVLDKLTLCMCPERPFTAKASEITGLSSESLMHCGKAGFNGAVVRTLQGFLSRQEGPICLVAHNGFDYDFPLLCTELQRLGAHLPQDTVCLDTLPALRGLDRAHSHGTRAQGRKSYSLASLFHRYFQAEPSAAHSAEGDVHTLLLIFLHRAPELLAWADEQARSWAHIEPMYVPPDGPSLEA
The experiment in a line: X-ray crystallography (1.9 A); 2 Mg2+ per active site; Co-crystallization: mTREX2 5-8 mg/ml (stock 50 mM Tris-HCl, 400 mM NaCl, pH 7.0) with DNA at molar ratio 1:1.2; crystallization conditions in Table S2 not in the material. The following applies: protein: recombinant; tags: pET28a vector, TALON-purified (His tag implied); chain copies: 2; hairpin; 1-nt unpaired 3' overhang, 4-nt unpaired 5' overhang; 2 DNAs per protein dimer.

The target of data set [3] is T1, mTREX2. The experiment in a line: X-ray crystallography (2.7 A); 2 Mg2+ per active site; Co-crystallization: mTREX2 5-8 mg/ml (stock 50 mM Tris-HCl, 400 mM NaCl, pH 7.0) with DNA at molar ratio 1:1.2; crystallization conditions in Table S2 not in the material. The following applies: protein: recombinant; tags: pET28a vector, TALON-purified (His tag implied); chain copies: 2; hairpin; 3' overhang 2 nt.

B1: mouse TREX2 (three prime repair exonuclease 2) (enzyme)
chain: T1 sequence
notes: TREX2, three prime repair exonuclease 2, mouse; NCBI Gene ID 24102; Cloned into pET28a and purified on a TALON column; Homodimer in the crystal and by gel filtration; also called mTREX2; apo-mTREX2; source: E. coli BL21-CodonPlus (DE3)-Rosetta, purified (HiTrap TALON, HiTrap Q, Superdex 75)
A word on the stoichiometry N: it is the number of molecules, sites or subunits per partner or assembly. Consider B1, for which the “stoichiometry N” value in data set [1] was found to be 2.

B2: Y-shaped DNA (23-nt stem loop) (structured_DNA)
DNA: TGCCAGGCCCTCTTTAGGGCCTT
On to B2, for which the binding result with mTREX2 [2] is “binds”.

B3: duplex DNA with 2-nt 3'-overhang (stem loop) (structured_DNA)
DNA: GGCCCTCTTTAGGGCCTT
As for B3, the binding result with mTREX2 [3] is reported as “binds”.

Source of the values: article PMC6294518, “Structural insights into the duplex DNA processing of TREX2” (Nucleic Acids Research, 2018).
